Blank lines part the entries; values can stand above or below the binder they belong to. Positions of bridges follow the written chain, without caps; N, C: chain ends. No end group written: not given here.
What was measured:
Assay in all cases: cell-based or functional assay
[1] = target: T1, MMP-2 (matrix metalloproteinase-2, gelatinase), purified enzyme (UniProt P08253 110-660, limits assumed)
T1 sequence (looked up): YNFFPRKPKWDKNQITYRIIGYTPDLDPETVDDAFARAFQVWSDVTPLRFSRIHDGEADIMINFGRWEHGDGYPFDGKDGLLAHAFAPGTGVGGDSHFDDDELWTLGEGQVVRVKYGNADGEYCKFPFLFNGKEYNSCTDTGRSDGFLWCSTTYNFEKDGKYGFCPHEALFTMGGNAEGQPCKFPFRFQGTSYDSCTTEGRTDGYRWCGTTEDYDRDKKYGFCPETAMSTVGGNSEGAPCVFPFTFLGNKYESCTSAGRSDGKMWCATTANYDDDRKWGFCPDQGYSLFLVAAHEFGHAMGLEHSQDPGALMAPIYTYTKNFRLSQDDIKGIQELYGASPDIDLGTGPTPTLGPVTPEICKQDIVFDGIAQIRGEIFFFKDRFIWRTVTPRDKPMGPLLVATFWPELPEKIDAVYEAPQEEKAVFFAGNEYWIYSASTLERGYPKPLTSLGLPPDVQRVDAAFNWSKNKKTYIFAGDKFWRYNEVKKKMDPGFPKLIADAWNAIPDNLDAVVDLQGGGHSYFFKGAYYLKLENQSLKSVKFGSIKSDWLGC

[2] = target: MMP-9 (matrix metalloproteinase-9, gelatinase), purified enzyme (UniProt P14780 107-707, limits assumed)
MMP-9 (matrix metalloproteinase-9, gelatinase), purified enzyme, sequence (P14780 107-707 limits assumed): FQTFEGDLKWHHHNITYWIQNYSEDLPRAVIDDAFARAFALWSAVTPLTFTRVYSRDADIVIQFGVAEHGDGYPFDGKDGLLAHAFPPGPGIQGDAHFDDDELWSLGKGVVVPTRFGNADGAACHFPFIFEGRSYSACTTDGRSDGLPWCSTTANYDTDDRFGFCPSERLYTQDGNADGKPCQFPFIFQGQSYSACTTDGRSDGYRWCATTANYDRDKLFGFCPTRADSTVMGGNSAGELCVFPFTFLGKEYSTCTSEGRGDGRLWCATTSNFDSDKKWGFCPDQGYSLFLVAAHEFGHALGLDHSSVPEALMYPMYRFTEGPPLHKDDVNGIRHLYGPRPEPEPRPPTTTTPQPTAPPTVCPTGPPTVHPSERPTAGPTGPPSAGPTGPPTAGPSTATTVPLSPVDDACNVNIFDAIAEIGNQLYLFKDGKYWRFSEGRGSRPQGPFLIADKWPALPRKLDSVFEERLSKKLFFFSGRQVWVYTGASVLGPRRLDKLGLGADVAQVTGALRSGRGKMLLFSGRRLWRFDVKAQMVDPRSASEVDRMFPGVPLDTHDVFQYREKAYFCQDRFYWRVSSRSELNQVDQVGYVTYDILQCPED

[3] = target: cell surface-bound gelatinases (of HT1080 cells)

Binder: CLPGHWGFPSC (disulfide 1-11) [CLP peptide CLPGHWGFPSC]
inhibition of MMP-2 activity, casein zymography (area digested), peptide at 85 uM [1]: 50 % inhibition

Binder: CTTHWGFTLC (disulfide 1-10; also: adsorbed non-covalently to POPC/POPE liposomes) [CTT peptide … bound to POPC/POPE (80/20 mol/mol) liposomes]
transfer of rhodamine B liposomes with CTT into HT1080 cells after preincubation with TIMP-2 (10 µg/ml) [3]: 50 % inhibition

Binder: CTTHWGFTLC (disulfide 1-10; also: adsorbed non-covalently to POPC/POPE liposomes) [CTT peptide CTTHWGFTLC bound to POPC/POPE (80/20 mol/mol) liposomes]
IC50 of inhibition of MMP-9 activity, gelatinase assay with fluorogenic peptide substrate [2]: 8 µM

Results, then the binder that gave them:

inhibition of MMP-2 activity, casein zymography (area digested), peptide at 85 uM [1]: ~30 % inhibition
Binder: STTHWGFTLC [STT peptide … (linear analog of CTT)]

inhibition of MMP-2 activity, casein zymography (area digested), peptide at 85 uM [1]: ~70 % inhibition
IC50 of inhibition of MMP-9 activity, gelatinase assay with fluorogenic peptide substrate [2]: 8 µM
Binder: CTTHWGFTLC (disulfide 1-10) [CTT peptide CTTHWGFTLC (cyclic, free in solution)]

From patent US20040213833A1 (published 2004)
